system: K4 kissing-loop RNA reporter; test: apparent KD of K4 kissing-loop reporter; higher = weaker reporter binding; settings: Eterna round: R107; input ligand: theophylline 20 uM
Experimental: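 RNA-MaP round R107: designed RNA switches with theophylline, tryptophan, arginine or FMN aptamers are transcribed on-chip within common flanks. They are titrated with a labelled K4 kissing-loop RNA reporter in RNA-MaP buffer (100 mM Tris pH 7.5, 80 mM KCl, 4 mM MgCl2), without ligand or with the indicated ligand. Median apparent KD per design.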
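Further: bound reporter read as fluorescence of individual clusters on recovered sequencing chips by microscopy, with normalized cluster intensities fitted with a binding model.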

| Sequence | apparent KD of K4 kissing-loop reporter |
| --- | --- |
| UGUCAUUGGUCGGCCGCCACUUCGUAUGAAGUGAUGUUUUGUAGAUUGUGUUGAAAGGUGUGGUGAAGGACCGGGACCGAUGACU [FiskerMod 23 - Jieux - Same State - Tryptophan B] | 1050 nM |
| GUAUCGCUAGGAGGAUAUUUCAUAUAAUAUAUAAAUGGAUAUACGGAGUGAUGUUCCGAUUUACGGAAAGAAGGCCUAGUGAUAC [FMN B 18] | 229 nM |
| AUUUUGUUGUCAGGAUAUUAGUAUGGUUUUGGUUUGUUAGUGAUGUUGAUGUUUUGUUUAUGUAUUUAAGAAGGGAUUUAGCGGU [aqaawgumullin] | 401 nM |
| ACGUCACGUAUACUGGUGGUUUCGAUCGAUACCAGUAGCGAGAGUUACCCUUGGCAGCGACAUGAGUGAUGUUUAUGUAUGAUGA [#13 K4 Theophylline A Exclusion] | 560 nM |
| AACUGGGUUCGUGAUACCAGCUCACACAUGAGUGAUGUUGAUGUAGUGGGCAAAAUGUGGAGCCCUUGGCAGCACUGUGACCACG [XTheo-B3] | 378 nM |
| CUGACGUGCGGUAGGUUCAAGUGCUGGGAAGGAGCGCAGAUGACUGCAGGUAGGUCGCCCAGUGAUGUUGGGCUUUCCACCUACG [Quinbe] | 214 nM |
| AAUGUACAAGUGAUGUUUGUACUUUCCGAAGGAGCGUCAAAUAAGACAGGUAGGUCGCGGAUACUCUAAAUAAUCAGGUCAUUAA [JR_ExcArginiA_Sub019] | 87.2 nM |
| AAAUAAAAGGCGGCCGCCACUGAACGCCUCCGCGUGGGUAUAUAGUGAUGUUAUAUGGCCGCCUUCAGGACCGGGCCAAAUAAAA [AstrosSSTryB#1] | 274 nM |
| GGAGAGGUCUUGUUUGGAUGUGUUUAAUGGCGAGGACCGGUACGGCCGCCACUCGGGUGAUGUUAGUGAUGUUGAUGUAGUGAUG [wzwmullin] | 149 nM |
| GGAUAGGAUAGAGGAUAUGGCUUACGCAGAAAUAACUUGUUGUGUUUAUCCAUAGGGAGUGAUGUUCCAGAAGGCUGUCCUAUCG [MatMod 18 - Jieux - Exclusion - FMN B] | 240 nM |
| UUAUCUAUAUUCGAUACCAGUACCCUUUGUGUUAAUCCUUUUAUCAGUGAUGUUGAUGUGUACCCUUGGCAGCGGGUAUGGGUUU [KL-XTheo-B15] | 640 nM |

same assay, conditions: Eterna round: R107; input ligand: tryptophan 2.4 mM

| Sequence | apparent KD of K4 kissing-loop reporter |
| --- | --- |
| AGCGGCCAGUCGGCCGCCACUCCGGGCAGUGAUGUUGCGAAGUGUCUACUAGAGUGAUGUUCUAAGAGGACCGGGACUGACGUAU [Exclusion Tryptophan B Gf 11] | 332 nM |
| AUUUAAUUAACUGAUACCAGACUUUAUGUAUUUAUUAAAACUAGUGAUGUUAGUUUAUCUGUCCCUUGGCAGCAGUUUCUACUUA [JR_Nu_ExcTheophyB_Sub021] | 83.4 nM |
| UCCACGCUUCGAGGAUAUCGGAUUAGAGUGAUGUUCUAAAGACGCCCAGUGAUGUUGGAUGCGAUACGAGAAGGCGGUGGCGUGU [Same State FMN B GF6] | 176 nM |
| UUUUUGGAGAAUUAUAGUGAUGUUAUGAAGGAGGAUAUCUGGAGAUGGAGAAGGCCUAGUGGCUCAGCCCUCGCGGGUGGGUGGG [ExFMNA.aD] | 426 nM |
| UUUUAUAACCGAAGGAGCGCGUGGGCGCAGUGAUGUUGCGCCCGACAUCACUUCAACUUAACGCAGGUAGGUCGCGGUUUUAAUG [Arginine B (Excl) V3] | 168 nM |
| AGAUUCGACACGGCCGCCACUCGUGGUGGAUUACCUAGUGUCGAAGUUGAGUGAUGUUCAAGUACGAGGACCGGGUGUUGAGUCU [KL-XTryp-B8 #analogue] | 500 nM |
| UCGAUCGCUAGUGAUGUUGGUGUGCUACAUCGAGGACCGGUACGGCCGCCACUCGAGCCCGAGUAGAAGGGUGGGCUGCUAUGAA [theeternabot_sameState_KL_Trp_A_18] | 895 nM |
| AAAUAAAGCAGUCACCCAGUGAUGUUGGAAGGAGCGUGCGAAAGCACAGGUAGGUCGCCGAUAGGACAAAGUCCAAGUGGCUGCA [#SwitchBubble 30 #K4Early] | 318 nM |
| UUUGUAGUGGGAGGAUAUCCUAAUAUGGGUGAUGUUAGCGAUGUUGAAGGUGUAGUGAUGUUAUGCGGAGAAGGCCCACUGUAGA [BDazzled - #20 - Exc. FMN B] | 253 nM |
| AAAGGCAAAGCCCGAGUGAUGUUCGACGAUACCAGCCUCGAUAGAGGCCCUUGGCAGCGUAAAUGAUCAUGAAGCCAAGGAAUAA [whbob_Ex_Theo_A_th67] | 313 nM |
| AAAGGAUCAGAGAGUGAUGUUCUCUAAUAACGAGGACCGGUACGGCCGCCACUCGAAUAGAUCCAAGUCCUACGAAAAGUAGGAC [Omei inspired 8] | 210 nM |
| CCAUUCUGUUACGAUACCAGUCUAAUAUAUUUGAUCAAUACCCUCGCCGAGUGAUGUUCGGACCCUUGGCAGCGUCUGGGACAGG [bbybmullin] | 364 nM |
| GCCUUUUUUCGAGCUACAGCUCGAUUUGGUCGAGGACCGGUACGGCCGCCACUCGAAUGAUAGUGAUGUUAUCAUUAUGGCAUAA [JR_ExcTryptoA_Sub023] | 152 nM |
| AAGUGUCAUUAGACACACCGAUGUAUAAACUAGGAUAUGCUGAUAAGCAGAAGGAGUGAUGUUCCUUUCAUCAUCGGAAUUAAAU [#06 K4 FMN A Exclusion] | 144 nM |
| AACGCUGGUGAAUAACACUAGCGAAAUUCGCGAGGACCGGUACGGCCGCCACUCGCUAACUGCGAGUGAUGUUCGAUAAUAAAAU [Mat - Mod of OpenEnded 3 - D7] | 122 nM |
| AAGGGCGAGGUAACGUGGAUAUCUCGUCGCAAGGAUAUCUGGAAACAGAGAAGGUGCGACAUCACCGGCAGUGAUGUUGCUGGGC | 181 nM |
| AAUGUACAGGGAAGGAGCGUAGUCCAGUGAUGUUGGAAUUAAAUACCAGUGAUGUUGGUUAUACAGGUAGGUCGCCCUAAAGUGC [KL-XARG-B20] | 73.2 nM |
| AUUUUUUUAUCAGGAUAUUAGUGAUGGUUGUUUUUGUUAGUGAUGUUGAUAUUUGUUUUAUGUAUUUAAGAAGGGAUUGAGAUGU [zbbzmullin] | 49.7 nM |
| UACGCCACAGACGUGGAGUACCUUGGGUCGAAGGAUAUCAGCAUUGUGAGAAGGUCGCCGAUUCUAAGUGAUGUUUAGAUCAGGG [theeternabot_sameState_KL_FMN_A_2] | 409 nM |
| CGAGUGAUGUUCGAAGAGUUGUUAAGCGAUACCAGCUAGGAAACUGGCCCUUGGCAGCGUAAUAAAUAAAUAAAUAAAUGAUCAC [whbob_Ex_Theo_A_th62] | 322 nM |
| UCGAUAGAGAGUGAUGUUCUCGUAUCAGAUACCAGUCACGCGAGUGACCCUUGGCAGCUGAUGUACAGCUGAGAGUAGUAUUCGA [Theo A Ex t8] | 89.6 nM |
| UUUCCAGAUAAGUGGGAACACUCCAUAACAGAGGAUAUCAGAGCGCUGAGAAGGCUGUUUAUCAGUGAUGUUGAUAGUGUGGAGU [FMN A SS t2a] | 630 nM |

| Sequence | apparent KD of K4 kissing-loop reporter |
| --- | --- |
| GGUGACAACCAGAGGUGAUGUAUAGAAUCGCGAGGACCGGUACGGCCGCCACUCGUGAAGAGAAAGGAGUGAUGUUCCGUAAUGG [Kazoo C6] | 124 nM |
| UGUACCGACUCAGGAUAUGUCGUCGAAAGACGAAAUGGAGUGAUGUUCCUUAAACUGCGAAAGCAGACAGAAGGGAGUUGGUACU [FmnBS 29 C9+G77] | 216 nM |
| GCUAUGGUAGGAAGGAGCGCUUAAUUACUAAUAAGAGUGAUGUUCGAUAGUAGGUAUUUGUAGCAGGUAGGUCGCCUACUAUAGC [KL-Arg B24] | 215 nM |
| GUAUAUCGAGUGAUGUUCGAAUGCUCCGAAGGAGCGCGGAUAAUCGCAGGUAGGUCGCGGAGCAGUUGCUGAGGAAGCUCAGUAU [Arg A SS t11] | 147 nM |
| AAGUCAUACAGAAGGAGCGUGUUUUAUAAUUUAUUUUCAUGAUCGAGUGAUGUUCGAUAUACACAGGUAGGUCGCUGUAUAAUAA [JR_SSArginiB_Sub007] | 103 nM |
| GAUCAUAGCACGGCCGCCACUGAUAUGCCGUGCUAUACGAGUGAUGUUCGUAAUUAUACGGGUAUCAGGACCGGGUGCAACGGUA [Tryp B SS t2] | 112 nM |
| AAGCAGUCACUCGAACCCAUCGAAGAUGGGCGAGGACCGGUACGGCCGCCACUCGGAGUGAUGUUCCGCAGACUGCAAAAUAAAA | 164 nM |
| UGAUAGGACAGAAGGAGCGGUAGUGAUGUUGCCAAAAGUAUAAGGUGUCAAAAGACACCCUACCAGGUAGGUCGCUGUCCUAUCU | 340 nM |
| AGCAAUAUCACGGCCGCCACUGAAUAUUGUUUUUAUAUUUAUAAAUCUUGCCAGUGAUGUUGGUUCAGGACCGGGUGAGUUAAUA [JR_SSTryptoB_Sub004] | 412 nM |
| CAAGCUCUCCAAGGAUAUGAUAUCGACCCGUCUUAGUGAUGUUAAGGCUGUAGAAAUUCACAUUGAUCAGAAGGUGGUACCCUCC [theeternabot_sameState_KL_FMN_B_8] | 239 nM |
| AAGUCAUAUAGAAGGAGCGUGUUUUUUAAUUUAUUUUCAUGAUCGAGUGAUGUUCGAUAUACACAGGUAGGUCGCUGUAUAAUAA [hbob_SS_Arginine_B_2t141] | 112 nM |
| UGUCAUUGGUCGGCCGCCACUUCGUAUGAAGUGAUGUUUUGUAGAUUGUGUUGAAAGGUGUGGUGAAGGACCGGGACCGAUGACU [FiskerMod 23 - Jieux - Same State - Tryptophan B] | 769 nM |
| GUAUCGCUAGGAGGAUAUUUCAUAUAAUAUAUAAAUGGAUAUACGGAGUGAUGUUCCGAUUUACGGAAAGAAGGCCUAGUGAUAC [FMN B 18] | 202 nM |
| AUUUUGUUGUCAGGAUAUUAGUAUGGUUUUGGUUUGUUAGUGAUGUUGAUGUUUUGUUUAUGUAUUUAAGAAGGGAUUUAGCGGU [aqaawgumullin] | 343 nM |
| ACGUCACGUAUACUGGUGGUUUCGAUCGAUACCAGUAGCGAGAGUUACCCUUGGCAGCGACAUGAGUGAUGUUUAUGUAUGAUGA [#13 K4 Theophylline A Exclusion] | 492 nM |
| AACUGGGUUCGUGAUACCAGCUCACACAUGAGUGAUGUUGAUGUAGUGGGCAAAAUGUGGAGCCCUUGGCAGCACUGUGACCACG [XTheo-B3] | 371 nM |
| CUGACGUGCGGUAGGUUCAAGUGCUGGGAAGGAGCGCAGAUGACUGCAGGUAGGUCGCCCAGUGAUGUUGGGCUUUCCACCUACG [Quinbe] | 186 nM |
| AAUGUACAAGUGAUGUUUGUACUUUCCGAAGGAGCGUCAAAUAAGACAGGUAGGUCGCGGAUACUCUAAAUAAUCAGGUCAUUAA [JR_ExcArginiA_Sub019] | 85 nM |
| AAAUAAAAGGCGGCCGCCACUGAACGCCUCCGCGUGGGUAUAUAGUGAUGUUAUAUGGCCGCCUUCAGGACCGGGCCAAAUAAAA [AstrosSSTryB#1] | 373 nM |
| GGAGAGGUCUUGUUUGGAUGUGUUUAAUGGCGAGGACCGGUACGGCCGCCACUCGGGUGAUGUUAGUGAUGUUGAUGUAGUGAUG [wzwmullin] | 89.5 nM |
| GGAUAGGAUAGAGGAUAUGGCUUACGCAGAAAUAACUUGUUGUGUUUAUCCAUAGGGAGUGAUGUUCCAGAAGGCUGUCCUAUCG [MatMod 18 - Jieux - Exclusion - FMN B] | 183 nM |
| UUAUCUAUAUUCGAUACCAGUACCCUUUGUGUUAAUCCUUUUAUCAGUGAUGUUGAUGUGUACCCUUGGCAGCGGGUAUGGGUUU [KL-XTheo-B15] | 349 nM |
